Target: MERS-CoV spike RBD fragment (human betacoronavirus 2c EMC/2012 …, UniProt K0BRG7 367-606)
Assay: MST

Binder: ACATAGGCGTT (ssDNA) [Labeled complementary strand]
- binding result: no binding
